In the supplement of paper PMC6757056:
± gives the standard deviation of the averaged measurements.

B1: library; a variant is named by its letters at N, in order (parent)
chain: GCUGUCACCGGUGCUUGGUACGUUAUAUUCAGCCGGUCUGAUGAGUCUNNNNNNAGACGAAACAGC

Experiments:
(6R,S)-folinic acid [1] = variants of: B1; test: FACS-Seq fitted mean relative fluorescence mCherry/BFP without ligand (log10 relative fluorescence); HEK293T overexpressing SLC46A1; higher = higher reporter protein expression; settings: without (6R,S)-folinic acid; ligand present: no
Experimental: (§1)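 Hammerhead (sTRSV) ribozyme switch libraries with a ligand aptamer grafted on stem I and a randomized N4-6 loop II, cloned into the 3' UTR of mCherry and transiently transfected into HEK293T cells; RNA-Seq 72 h post transfection with ligand added 1 h before transfection; RNA read count / plasmid DNA read count normalized to the non-cleaving sTRSVctl (x100), log10; sequences with >100 DNA reads. FACS-Seq: lentiviral library sorted into 6 bins after 48 h ligand, log-normal fit mean of mCherry/BFP scaled to controls. Printed sequences are partial switch sequences.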

(6R,S)-folinic acid [2] = variants of: B1; test: normalized RNA/DNA level without ligand (relative to sTRSVctl = 100) (log10 (% of sTRSVctl)); HEK293T overexpressing SLC46A1; higher = less ribozyme self-cleavage, higher mRNA level; settings: without (6R,S)-folinic acid; ligand present: no
Experimental: as §1

(6R,S)-folinic acid [3] = variants of: B1; test: FACS-Seq fitted mean relative fluorescence mCherry/BFP with ligand (log10 relative fluorescence); HEK293T overexpressing SLC46A1; ligand concentration (+) FACS-Seq: 6 mM; higher = higher reporter protein expression; settings: with (6R,S)-folinic acid; ligand present: yes
Experimental: as §1

(6R,S)-folinic acid [4] = variants of: B1; test: normalized RNA/DNA level with ligand (relative to sTRSVctl = 100) (log10 (% of sTRSVctl)); HEK293T overexpressing SLC46A1; ligand concentration (+) RNA-Seq: 6 mM; higher = less ribozyme self-cleavage, higher mRNA level; settings: with (6R,S)-folinic acid; ligand present: yes
Experimental: as §1

Variant	FACS-Seq fitted mean (log10) ((6R,S)-folinic acid [1])	normalized RNA/DNA level without ligand (log10) ((6R,S)-folinic acid [2])	FACS-Seq fitted mean (log10) ((6R,S)-folinic acid [3])	normalized RNA/DNA level with ligand (log10) ((6R,S)-folinic acid [4])
GAGAAG	0.0112 ± 0.083	1.905 ± 0.0077	0.219 ± 0.32	2.02 ± 0.029
GACUUG	0.321 ± 0.035	1.956 ± 0.018	0.389 ± 0.13	1.99 ± 0.039
UACUUG	0.275 ± 0.057	1.78 ± 0.022	0.607 ± 0.16	1.98 ± 0.045
GACGCC	0.287 ± 0.023	2.043 ± 0.0061	0.0736 ± 0.3	2.03 ± 0.028
GACCAA	0.358 ± 0.039	2.0328 ± 0.00084	0.42 ± 0.074	2.03 ± 0.043
UACUGG	0.0573 ± 0.058	1.65 ± 0.049	0.433 ± 0.099	1.97 ± 0.039
UACUGC	0.238 ± 0.013	2.01 ± 0.0074	0.329 ± 0.25	2.02 ± 0.049
CACGAU	0.217 ± 0.11	1.99 ± 0.027	0.334 ± 0.6	2.01 ± 0.021
GAGGAU	0.372 ± 0.013	1.963 ± 0.0066	0.0226 ± 0.65	2.02 ± 0.033
GAGAGU	0.347 ± 0.02	1.982 ± 0.013	0.471 ± 0.28	2.014 ± 0.0034
GAGAGG	0.109 ± 0.067	1.901 ± 0.012	0.336 ± 0.41	2.03 ± 0.026
GAGAGA	0.2 ± 0.041	1.946 ± 0.011	0.279 ± 0.16	2.01 ± 0.038
GAGCCG	0.537 ± 0.069	2.047 ± 0.0093	0.419 ± 0.15	2.03 ± 0.05
GAGCCU	0.306 ± 0.041	2.076 ± 0.012	0.5133 ± 0.00087	2.062 ± 0.0057
GAGCCA	0.191 ± 0.0078	2.023 ± 0.02	0.281 ± 0.24	2.02 ± 0.047
CACUGA	0.463 ± 0.077	2.012 ± 0.0079	0.325 ± 0.16	2.04 ± 0.028
CACUGG	0.801 ± 0.11	1.962 ± 0.013	0.687 ± 0.052	2.03 ± 0.021
UAGGGA	0.295 ± 0.13	1.8512 ± 0.0012	0.501 ± 0.29	2 ± 0.03
UAGGGU	0.607 ± 0.2	1.885 ± 0.015	0.604 ± 0.026	1.98 ± 0.049
UAGGGG	0.0613 ± 0.073	1.648 ± 0.0041	0.172 ± 0.14	1.97 ± 0.04
UACCAC	0.907 ± 0.028	1.971 ± 0.0041	0.651 ± 0.047	1.994 ± 0.012
CACCAU	0.138 ± 0.12	1.9842 ± 0.00094	0.347 ± 0.13	2 ± 0.011
UAGAGC	0.0862 ± 0.082	1.93 ± 0.022	0.445 ± 0.031	1.99 ± 0.048
UAGAGA	0.273 ± 0.12	1.807 ± 0.015	0.551 ± 0.33	1.99 ± 0.029

Variant	FACS-Seq fitted mean (log10) ((6R,S)-folinic acid [1])	normalized RNA/DNA level without ligand (log10) ((6R,S)-folinic acid [2])	FACS-Seq fitted mean (log10) ((6R,S)-folinic acid [3])	normalized RNA/DNA level with ligand (log10) ((6R,S)-folinic acid [4])
UAGAGG	0.0109 ± 0.02	1.561 ± 0.013	0.481 ± 0.11	1.9 ± 0.052
CAGGCU	0.511 ± 0.14	2.055 ± 0.0024	0.544 ± 0.066	2.01 ± 0.036
AAGGAG	0.211 ± 0.081	1.789 ± 0.017	0.263 ± 0.14	2 ± 0.046
AAGGAU	0.466 ± 0.0051	1.917 ± 0.0072	0.53 ± 0.073	1.966 ± 0.013
AAGGAA	0.513 ± 0.14	1.937 ± 0.01	0.429 ± 0.1	2 ± 0.023
GAGACU	0.361 ± 0.041	2.022 ± 0.0074	0.232 ± 0.024	2.02 ± 0.022
UAGCCU	0.641 ± 0.044	2.02 ± 0.045	0.19 ± 0.0051	2.04 ± 0.037
UAGCCG	0.635 ± 0.13	1.86 ± 0.036	0.409 ± 0.069	1.99 ± 0.041
AAGGGA	0.125 ± 0.041	1.949 ± 0.0036	0.0354 ± 0.14	2.03 ± 0.03
AAGGGU	-0.0258 ± 0.095	1.952 ± 0.0044	-0.308 ± 0.14	2.02 ± 0.032
AAGGCC	0.18 ± 0.073	2.059 ± 0.012	0.288 ± 0.18	2.04 ± 0.081
AACCCC	0.581 ± 0.12	2.013 ± 0.0022	0.492 ± 0.041	1.99 ± 0.045
AAGAAG	0.22 ± 0.028	1.8593 ± 0.00099	0.315 ± 0.053	2 ± 0.052
AAGAAA	0.107 ± 0.0018	1.935 ± 0.0037	0.0952 ± 0.071	1.99 ± 0.021
AAGAAC	0.369 ± 0.066	1.985 ± 0.012	0.624 ± 0.1	2 ± 0.038
CAGCAU	0.411 ± 0.13	1.96 ± 0.014	0.546 ± 0.21	2.01 ± 0.027
GAGGCA	0.286 ± 0.031	2.017 ± 0.0044	0.296 ± 0.25	2.05 ± 0.026
AAGCAU	0.218 ± 0.067	1.953 ± 0.019	0.102 ± 0.024	2.01 ± 0.039
AAGCAA	0.352 ± 0.078	1.964 ± 0.015	0.361 ± 0.1	1.994 ± 0.012
UAGACU	0.606 ± 0.02	2.0068 ± 0.00026	0.559 ± 0.038	1.98 ± 0.051
UAGACA	0.386 ± 0.0059	1.967 ± 0.0049	0.455 ± 0.17	2 ± 0.029
UAGACG	0.218 ± 0.052	1.754 ± 0.0068	0.17 ± 0.055	1.97 ± 0.029
UACGUG	0.0454 ± 0.021	1.7 ± 0.018	0.518 ± 0.16	1.946 ± 0.011
AAGGUC	0.209 ± 0.03	2.03 ± 0.013	0.178 ± 0.099	2 ± 0.027

Variant	FACS-Seq fitted mean (log10) ((6R,S)-folinic acid [1])	normalized RNA/DNA level without ligand (log10) ((6R,S)-folinic acid [2])	FACS-Seq fitted mean (log10) ((6R,S)-folinic acid [3])	normalized RNA/DNA level with ligand (log10) ((6R,S)-folinic acid [4])
AAGGUG	0.462 ± 0.049	1.827 ± 0.011	0.597 ± 0.51	1.98 ± 0.04
AAGGUA	0.34 ± 0.014	1.74 ± 0.024	0.228 ± 0.14	1.83 ± 0.025
AACUCG	0.22 ± 0.034	1.998 ± 0.014	0.302 ± 0.52	1.99 ± 0.026
UACCUG	0.402 ± 0.083	1.86 ± 0.039	0.39 ± 0.14	1.99 ± 0.052
UACCUC	0.402 ± 0.35	2.052 ± 0.0094	0.585 ± 0.43	2.04 ± 0.049
UACGAC	-0.293 ± 0.061	2.013 ± 0.0052	-0.283 ± 0.015	2.01 ± 0.039
UACGAU	0.175 ± 0.046	1.9462 ± 0.0017	0.146 ± 0.33	2.02 ± 0.023
UACGAG	0.31 ± 0.029	1.689 ± 0.014	0.472 ± 0.14	1.953 ± 0.013
UACCCG	0.166 ± 0.063	1.92 ± 0.03	0.279 ± 0.24	1.977 ± 0.0043
AACCUU	0.578 ± 0.19	2.044 ± 0.0052	0.59 ± 0.22	2.042 ± 0.02
AACCUA	-0.147 ± 0.17	2.0051 ± 8.4e-05	-0.514 ± 0.18	2.02 ± 0.034
GACCCU	0.102 ± 0.065	2.065 ± 0.0032	-0.257 ± 0.21	2.04 ± 0.035
GACUCC	0.513 ± 0.089	2.053 ± 0.012	0.583 ± 0.11	2.06 ± 0.013
GACUAU	0.375 ± 0.083	1.9961 ± 0.00078	0.557 ± 0.24	2.002 ± 0.0044
GACUAC	0.495 ± 0.024	2.041 ± 0.011	0.191 ± 0.19	2.066 ± 0.016
GACUAG	0.271 ± 0.048	1.934 ± 0.019	0.493 ± 0.089	2 ± 0.033
GACGUG	0.598 ± 0.2	1.946 ± 0.019	0.734 ± 0.17	2.01 ± 0.029
GACGUA	0.251 ± 0.023	1.9997 ± 0.00027	0.131 ± 0.26	2.03 ± 0.038
UAGAUG	0.3 ± 0.084	1.702 ± 0.0024	0.477 ± 0.13	1.97 ± 0.043
UACUAU	0.437 ± 0.19	1.967 ± 0.018	0.489 ± 0.21	2.03 ± 0.023
UAGGUG	0.228 ± 0.037	1.68 ± 0.017	0.559 ± 0.21	1.96 ± 0.033
UAGGUA	0.246 ± 0.04	1.878 ± 0.0067	0.0784 ± 0.099	1.98 ± 0.031
GAGCGA	0.146 ± 0.064	1.997 ± 0.0086	0.145 ± 0.15	2.035 ± 0.011
CAGCUG	0.118 ± 0.025	2.073 ± 0.01	0.1 ± 0.12	2.06 ± 0.022
